The Immune Epitope Database (IEDB)

Key:
[1] = biological target: HLA-A*26:01; assay: IEDB peptide-MHC binding, purified MHC/competitive/fluorescence; filed as Kd, often an IC50 or EC50 that approximates it; ≥ and ≤ were set here for values at or beyond the usual limits of such assays
[2] = biological target: HLA-A*26:02; assay: as above
[3] = biological target: HLA-A*68:02; assay: as above; conditions: source organism: Zaire ebolavirus
[4] = biological target: HLA-B*35:01; assay: as above; conditions: source organism: Zaire ebolavirus
[5] = biological target: HLA-A*30:01; assay: as above; conditions: source organism: Zaire ebolavirus
[6] = biological target: HLA-B*15:17; assay: IEDB peptide-MHC binding, purified MHC/direct/fluorescence; filed as Kd, often an IC50 or EC50 that approximates it; ≥ and ≤ were set here for values at or beyond the usual limits of such assays
[7] = biological target: HLA-B*08:02; assay: as above
[8] = biological target: HLA-B*27:05; assay: as above
[9] = biological target: HLA-A*01:01; assay: as above
[10] = biological target: HLA-B*15:01; assay: as above
[11] = biological target: HLA-B*08:03; assay: as above
[12] = biological target: HLA-A*69:01; assay: as above
[13] = biological target: HLA-A*11:01; assay: as above
[14] = biological target: HLA-B*48:01; assay: as above
[15] = biological target: HLA-B*46:01; assay: as above
[16] = biological target: HLA-B*07:02; assay: as above
[17] = biological target: HLA-B*58:01; assay: as above
[18] = biological target: HLA-A*31:01; assay: as above
[19] = biological target: HLA-B*15:02; assay: as above
[20] = biological target: HLA-B*57:01; assay: as above
[21] = biological target: HLA-B*39:01; assay: as above
[22] = biological target: HLA-A*02:01; assay: as above
[23] = biological target: HLA-C*06:02; assay: as above
[24] = biological target: HLA-A*02:01; assay: IEDB peptide-MHC binding, purified MHC/competitive/radioactivity; ≥ and ≤ were set here for values at or beyond the usual limits of such assays; conditions: source organism: Rhinovirus C
[25] = biological target: HLA-C*08:02; assay: IEDB peptide-MHC binding, purified MHC/direct/fluorescence; filed as Kd, often an IC50 or EC50 that approximates it; ≥ and ≤ were set here for values at or beyond the usual limits of such assays
[26] = biological target: HLA-C*12:03; assay: as above
[27] = biological target: HLA-A*02:01; assay: IEDB peptide-MHC binding, purified MHC/competitive/fluorescence; filed as Kd, often an IC50 or EC50 that approximates it; ≥ and ≤ were set here for values at or beyond the usual limits of such assays
[28] = biological target: HLA-A*68:02; assay: IEDB peptide-MHC binding, purified MHC/direct/fluorescence; filed as Kd, often an IC50 or EC50 that approximates it; ≥ and ≤ were set here for values at or beyond the usual limits of such assays; conditions: source organism: Influenza A virus (A/Quail/Shanghai/8/96(H9N2))
[29] = biological target: HLA-B*35:01; assay: as above
[30] = biological target: HLA-B*08:01; assay: as above
[31] = biological target: HLA-A*32:07; assay: IEDB peptide-MHC binding, purified MHC/competitive/fluorescence; filed as Kd, often an IC50 or EC50 that approximates it; ≥ and ≤ were set here for values at or beyond the usual limits of such assays; conditions: source organism: Salmonella enterica subsp. enterica serovar Typhi
[32] = biological target: HLA-B*45:06; assay: as above; conditions: source organism: Salmonella enterica subsp. enterica serovar Typhi
[33] = biological target: HLA-B*83:01; assay: as above; conditions: source organism: Salmonella enterica subsp. enterica serovar Typhi
[34] = biological target: HLA-A*68:23; assay: as above; conditions: source organism: Salmonella enterica subsp. enterica serovar Typhi
[35] = biological target: HLA-A*32:15; assay: as above; conditions: source organism: Salmonella enterica subsp. enterica serovar Typhi
[36] = biological target: HLA-B*39:01; assay: as above
[37] = biological target: HLA-C*14:02; assay: as above; conditions: source organism: Salmonella enterica subsp. enterica serovar Typhi
[38] = biological target: HLA-B*15:42; assay: as above; conditions: source organism: Salmonella enterica subsp. enterica serovar Typhi
[39] = biological target: HLA-C*05:01; assay: IEDB peptide-MHC binding, purified MHC/direct/fluorescence; filed as Kd, often an IC50 or EC50 that approximates it; ≥ and ≤ were set here for values at or beyond the usual limits of such assays; conditions: source organism: Salmonella enterica subsp. enterica serovar Typhi str. CT18
[40] = biological target: HLA-C*03:03; assay: as above; conditions: source organism: Salmonella enterica subsp. enterica serovar Typhi str. CT18
[41] = biological target: HLA-A*26:01; assay: as above; conditions: source organism: Rickettsia prowazekii
[42] = biological target: HLA-A*03:01; assay: as above; conditions: source organism: Rickettsia prowazekii
[43] = biological target: HLA-B*40:01; assay: as above; conditions: source organism: Rickettsia prowazekii
[44] = biological target: HLA-B*44:02; assay: as above; conditions: source organism: Rickettsia prowazekii
[45] = source organism: Zaire ebolavirus
[46] = source organism: Ebola virus - Mayinga, Zaire, 1976
[47] = source organism: Ravn virus - Ravn, Kenya, 1987
[48] = source organism: Pseudomonas putida
[49] = source organism: Pseudomonas aeruginosa PACS2
[50] = source organism: Escherichia coli 536
[51] = source organism: Influenza A virus (A/Quail/Shanghai/8/96(H9N2))
[52] = source organism: Salmonella enterica subsp. enterica serovar Typhi
[53] = source organism: Rickettsia prowazekii
[54] = source organism: Salmonella enterica

Question: Which results are given for FIYFGKKQY?
Answer: Kd [1, 45]: 2.3 µM; Kd [2, 45]: ≥ 20 µM; Kd [3]: 4.98 µM; Kd [4]: 1.49 µM; Kd [5]: ≥ 20 µM; Kd [6, 46]: 0.135 µM; Kd [7, 47]: ≥ 20 µM; Kd [8, 46]: ≥ 20 µM; Kd [9, 46]: 0.451 µM; Kd [10, 46]: 0.067 µM; Kd [11, 47]: ≥ 20 µM; Kd [12, 46]: ≥ 20 µM; Kd [13, 46]: ≥ 20 µM; Kd [14, 46]: ≥ 20 µM; Kd [15, 46]: ≥ 20 µM; Kd [16, 46]: ≥ 20 µM; Kd [17, 46]: ≥ 20 µM; Kd [18, 46]: ≥ 20 µM; Kd [19, 47]: 0.008 µM; Kd [20, 46]: 7.13 µM; Kd [21, 47]: ≥ 20 µM; Kd [22, 46]: ≥ 20 µM

Question: FQYLLPGFVL was tested. Which Kd ([23]; source organism: Variola virus) did it give?
Answer: The Kd was 8.62 µM.

Question: Which IC50 [24] does the source give for GLEPLDLNT here?
Answer: Its IC50 is 0.5 µM.

Question: What does the source list for IVHPPMLYM?
Answer: Kd [6, 48]: 0.0611 µM; Kd [25, 49]: ≥ 20 µM; Kd [26, 49]: 0.062 µM; Kd [17, 48]: 5.98 µM; Kd ([20]; source organism: Vibrio vulnificus CMCP6): 2.17 µM

Question: With LLDEYRDYI as the sequence, how does the Kd [27, 50] read?
Answer: The Kd was 0.0011 µM.

Question: What about the Kd [25, 50] of the same sequence?
Answer: Its Kd is ≥ 20 µM.

Question: How did the Kd [1, 51] turn out when LVGGREWSY was run?
Answer: Its Kd is ≥ 20 µM.

Question: What about the Kd [2, 51] of the same sequence?
Answer: Its Kd is ≥ 20 µM.

Question: What about the Kd [6, 51] of the same sequence?
Answer: Its Kd is 1.89 µM.

Question: What about the Kd [7, 51] of the same sequence?
Answer: Its Kd is ≥ 20 µM.

Question: What about the Kd [8, 51] of the same sequence?
Answer: The Kd was ≥ 20 µM.

Question: What about the Kd [28] of the same sequence?
Answer: Its Kd is ≥ 20 µM.

Question: And the Kd [9, 51]?
Answer: Its Kd is ≥ 20 µM.

Question: And the Kd [10, 51]?
Answer: The Kd was 1.19 µM.

Question: And the Kd [11, 51]?
Answer: The Kd was ≥ 20 µM.

Question: What about the Kd [12, 51] of the same sequence?
Answer: The Kd was ≥ 20 µM.

Question: And the Kd [13, 51]?
Answer: Its Kd is ≥ 20 µM.

Question: And the Kd [29, 51]?
Answer: Its Kd is 0.843 µM.

Question: And the Kd [14, 51]?
Answer: Its Kd is ≥ 20 µM.

Question: And the Kd [15, 51]?
Answer: The Kd was ≥ 20 µM.

Question: And the Kd [16, 51]?
Answer: The Kd was ≥ 20 µM.

Question: And the Kd [30, 51]?
Answer: Its Kd is ≥ 20 µM.

Question: And the Kd [17, 51]?
Answer: The Kd was ≥ 20 µM.

Question: What about the Kd [18, 51] of the same sequence?
Answer: Its Kd is ≥ 20 µM.

Question: And the Kd [19, 51]?
Answer: The Kd was ≥ 20 µM.

Question: And the Kd [20, 51]?
Answer: The Kd was 1.3 µM.

Question: And the Kd [21, 51]?
Answer: Its Kd is ≥ 20 µM.

Question: And the Kd [22, 51]?
Answer: Its Kd is ≥ 20 µM.

Question: Which results are given for WTFTPTTPL?
Answer: Kd [31]: 0.765 µM; Kd [32]: ≥ 5 µM; Kd [1, 52]: 0.581 µM; Kd [33]: ≥ 5 µM; Kd [34]: 0.0004 µM; Kd [35]: 0.0575 µM; Kd [36, 52]: 0.469 µM; Kd [37]: 0.0385 µM; Kd [27, 52]: 0.0058 µM; Kd [38]: ≥ 5 µM; Kd ([26]; source organism: Salmonella enterica subsp. enterica serovar Typhi str. CT18): 0.212 µM; Kd [39]: ≥ 20 µM; Kd [40]: ≤ 0.001 µM

Question: YGGKKAVTY was tested. Which Kd [41] did it give?
Answer: The Kd was ≥ 20 µM.

Question: What about the Kd [42] of the same sequence?
Answer: Its Kd is ≥ 20 µM.

Question: And the Kd [8, 53]?
Answer: Its Kd is ≥ 20 µM.

Question: What about the Kd [43] of the same sequence?
Answer: The Kd was ≥ 20 µM.

Question: What about the Kd [9, 53] of the same sequence?
Answer: Its Kd is ≥ 20 µM.

Question: And the Kd [10, 53]?
Answer: Its Kd is 1.4 µM.

Question: And the Kd [12, 53]?
Answer: The Kd was ≥ 20 µM.

Question: And the Kd [13, 53]?
Answer: The Kd was ≥ 20 µM.

Question: What about the Kd [29, 53] of the same sequence?
Answer: Its Kd is 0.249 µM.

Question: What about the Kd [15, 53] of the same sequence?
Answer: Its Kd is ≥ 20 µM.

Question: What about the Kd [44] of the same sequence?
Answer: Its Kd is ≥ 20 µM.

Question: And the Kd [16, 53]?
Answer: Its Kd is ≥ 20 µM.

Question: And the Kd [30, 53]?
Answer: The Kd was ≥ 20 µM.

Question: And the Kd [17, 53]?
Answer: Its Kd is ≥ 20 µM.

Question: And the Kd [18, 53]?
Answer: Its Kd is ≥ 20 µM.

Question: And the Kd [19, 53]?
Answer: The Kd was ≥ 20 µM.

Question: And the Kd [22, 53]?
Answer: The Kd was ≥ 20 µM.

Question: Which results are given for YRYISFLVL?
Answer: Kd [36, 54]: 0.536 µM; Kd [23, 54]: 0.651 µM
